B1: M13-C06 antibody (antibody, V domains shown)
VH: EVQLLESGGGLVQPGGSLRLSCAASGFTFSIYRMQWVRQAPGKGLEWVSGISPSGGTTWYADSVKGRFTISRDNSKNTLYLQMNSLRAEDTAVYYCARWSGGSGYAFDIWGQGTMVTVSS
VL: DIQMTQSPLSLSASVGDRVTITCQASRDIRNYLNWYQQKPGKAPKLLIYDASSLQTGVPSRFGGSGSGTDFSFTIGSLQPEDIATYYCQQFDSLPHTFGQGTKLEIK
notes: Fully human full-length antibody (ATCC PTA-7444); also called M13.C06.G4.P.agly; M13-C06.G4P.agly
B2: M13-C06 Fab (Fab, V domains shown)
VH: B1 VH
VL: B1 VL
notes: Fab made by enzymatic digestion of the IgG

Columns and labels:
human IGF-1R(1-903)-Fc [1] = molecular target: T1, human IGF-1R(1-903)-Fc (human, UniProt P08069 31-933); experiment: IGF-1 blocking ELISA at 320 nM IGF-1 His on biotinylated hIGF-1R-Fc
T1 construct: also called hIGF-1R-Fc; SDWT; not shown: human IgG1 Fc, C-terminal tag
T1 sequence (P08069 31-933): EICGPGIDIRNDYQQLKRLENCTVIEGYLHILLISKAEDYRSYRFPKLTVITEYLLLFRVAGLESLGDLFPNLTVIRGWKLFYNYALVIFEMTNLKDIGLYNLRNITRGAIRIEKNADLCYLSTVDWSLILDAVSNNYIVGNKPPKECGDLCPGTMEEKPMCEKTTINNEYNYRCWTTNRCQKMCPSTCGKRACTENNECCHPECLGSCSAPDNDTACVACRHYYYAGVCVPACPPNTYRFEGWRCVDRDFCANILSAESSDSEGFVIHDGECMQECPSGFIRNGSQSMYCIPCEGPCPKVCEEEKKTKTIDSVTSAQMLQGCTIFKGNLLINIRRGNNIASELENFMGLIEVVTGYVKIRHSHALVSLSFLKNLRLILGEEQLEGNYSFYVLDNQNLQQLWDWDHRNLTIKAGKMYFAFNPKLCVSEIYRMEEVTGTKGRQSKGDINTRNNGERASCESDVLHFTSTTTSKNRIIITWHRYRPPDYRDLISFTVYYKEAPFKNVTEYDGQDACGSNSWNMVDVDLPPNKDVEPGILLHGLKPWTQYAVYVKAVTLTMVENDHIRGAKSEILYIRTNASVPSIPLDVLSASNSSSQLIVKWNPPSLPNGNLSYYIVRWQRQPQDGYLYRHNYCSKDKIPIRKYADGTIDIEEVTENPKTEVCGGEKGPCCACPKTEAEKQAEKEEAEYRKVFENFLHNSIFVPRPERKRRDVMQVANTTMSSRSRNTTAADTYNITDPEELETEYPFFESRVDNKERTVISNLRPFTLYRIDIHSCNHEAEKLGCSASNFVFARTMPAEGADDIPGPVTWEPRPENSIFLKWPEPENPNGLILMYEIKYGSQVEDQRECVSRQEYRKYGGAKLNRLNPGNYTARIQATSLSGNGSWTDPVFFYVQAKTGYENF
Procedure: (§1) The dilutions were added to the plates in duplicate at 100 μL/well and the plates were incubated at RT for 1 hour. The plates were then washed four times with 200 μL/well PBST. An HRP-conjugated anti-Histag antibody (Penta-His HRP Conjugate, QIAGEN, Cat. No. 1014992) was diluted 1:1000 in PBST and added to plates at 100 μL/well, and the plates were incubated at RT for one hour. The plates were then washed four times with 200 μL/well PBST. SureBlue Reserve TMB Microwell Peroxidase Substrate (KPL, Cat. No. 53-00-01) was added to plates at 100 μL/well followed by 1% phosphoric acid at 100 μL/well once the desired reaction was observed. The absorbance of each well was determined at 450 nm, and the results were normalized and plotted against the log of antibody concentration.
(§2) Ligand Blocking Properties.

sIGF-1R(1-903) = molecular target: T2, sIGF-1R(1-903) (human, UniProt P08069 31-933); experiment: SEC with static light scattering
T2 construct: also called soluble IGF-1R ectodomain
T2 sequence (P08069 31-933): as above
Procedure: Analytical size exclusion chromatography (SEC) with in-line static light scattering. […] All samples contained 25 μg of each protein diluted to a final volume of 50 μL in PBS, pH 7.2, before injection onto the SEC column onto a TSKgel G3000SW XL, 5 mm, 250 Å Analytical SEC column (Tosoh Biosciences) equilibrated in 10 mM phosphate, 150 mM NaCl, 0.02% sodium Azide at pH 6.8 using an Agilent 1100 HPLC system. Light scattering data for material eluting from the SEC column were collected using a miniDAWN static light scattering detector coupled to an in-line refractive index meter (Wyatt Technologies). Light scattering data were analyzed using the ASTRA V software provided by the manufacturer.
All samples were diluted to a final volume of 50 μL in PBS, pH 7.2 before SEC/static light scattering analysis.

[2] = molecular target: T3, hIGF-1R-Fc mutant SD015 (H464E) (human, UniProt P08069 31-933); experiment: SPR (Biacore relative RUmax) and tr-FRET competition
T3 construct: not shown: human IgG1 Fc, C-terminal tag
T3 sequence (P08069 31-933 H494E): as the sequence (P08069 31-933) above, with H464E counted along it
Procedure: (§3) After, completion of the receptor-Fc loading step, flow rates were elevated to 5 μl/min. […] At the end of each sensorgram, the flow rate was elevated to 30 μl/min and the chip surface was regenerated by 2×10 μL injections of 0.1 M glycine, pH 2.

[3] = molecular target: T4, hIGF-1R-Fc mutant SD014 (K412A, A413Q) (human, UniProt P08069 31-933); experiment: SPR: receptor-Fc captured on M13-C06 chip, then M13-C06 Fab; relative to wild type
T4 construct: not shown: human IgG1 Fc, C-terminal tag
T4 sequence (P08069 31-933 K442A/A443Q): as the sequence (P08069 31-933) above, with K412A, A413Q counted along it
Procedure: as §3

human IGF-1R(1-903)-Fc [4] = molecular target: T1, human IGF-1R(1-903)-Fc; experiment: IGF-1 blocking ELISA: antibody titrated in 320 nM IGF-1 His on biotinylated hIGF-1R-Fc on streptavidin plates, bound ligand detected with anti-His-HRP
Procedure: as §1, §2

| Binder | IC50 (read off the curve) (human IGF-1R(1-903)-Fc [1]) [nM] | molecular weight of the complex (sIGF-1R(1-903)) [MDa] | binding result [2] | Biacore Relative RUmax [3] | IC50 (read off the curve) (human IGF-1R(1-903)-Fc [4]) [nM] |
| --- | --- | --- | --- | --- | --- |
| B1 | ~1 | 2 | no binding |  |  |
| B2 |  |  |  | 0.6 | ~1 |

Reference: patent US20090130105A1 (Biogen, published 2009)
